Assay results published in paper PMC9482650, “Quantitative fragmentomics allow affinity mapping of interactomes” (Nature Communications, 2022).

Legend:
Test in all cases: holdup assay
Set-up in all cases: key: below the threshold = too weak to quantify, mostly under pKd 3.1 to 4
Conditions in all cases: plain residues with an end cap or a label only (N-terminal biotin on a linker: ado-ado)
ARHGEF11, O15085 = target: T1, ARHGEF11, O15085
T1 sequence (O15085 42-136, limits assumed, looked up): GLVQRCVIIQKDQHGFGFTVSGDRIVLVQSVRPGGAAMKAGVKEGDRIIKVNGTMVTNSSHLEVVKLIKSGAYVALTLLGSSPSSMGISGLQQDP

IL16_1, Q14005 = target: IL16_1, Q14005
Sequence of IL16_1, Q14005 (Q14005 210-306): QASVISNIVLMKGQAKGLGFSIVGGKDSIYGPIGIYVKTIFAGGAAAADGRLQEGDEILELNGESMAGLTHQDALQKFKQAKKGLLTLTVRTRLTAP

FRMPD1, Q5SYB0 = target: T2, FRMPD1, Q5SYB0
T2 sequence (Q5SYB0 52-145, limits assumed, looked up): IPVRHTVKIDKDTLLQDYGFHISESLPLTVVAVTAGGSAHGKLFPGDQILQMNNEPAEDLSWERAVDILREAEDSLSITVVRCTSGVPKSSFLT

NOS1, P29475 = target: NOS1, P29475
Sequence of NOS1, P29475 (P29475 9-101): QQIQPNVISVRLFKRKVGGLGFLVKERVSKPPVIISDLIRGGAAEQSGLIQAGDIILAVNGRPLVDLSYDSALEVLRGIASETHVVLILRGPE

CARD11, Q9BXL7 = target: T3, CARD11, Q9BXL7
T3 sequence (Q9BXL7 662-765, limits assumed, looked up): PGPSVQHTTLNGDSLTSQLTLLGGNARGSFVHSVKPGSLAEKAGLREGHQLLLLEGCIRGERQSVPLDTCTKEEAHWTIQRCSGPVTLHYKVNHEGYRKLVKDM

GRIP2_3, Q9C0E4 = target: GRIP2_3, Q9C0E4
Sequence of GRIP2_3, Q9C0E4 (Q9C0E4 238-339): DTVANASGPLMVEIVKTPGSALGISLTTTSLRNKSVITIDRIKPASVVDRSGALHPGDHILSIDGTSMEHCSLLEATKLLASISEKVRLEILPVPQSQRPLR

PCLO, Q9Y6V0 = target: T4, PCLO, Q9Y6V0
T4 sequence (Q9Y6V0 4491-4600, limits assumed, looked up): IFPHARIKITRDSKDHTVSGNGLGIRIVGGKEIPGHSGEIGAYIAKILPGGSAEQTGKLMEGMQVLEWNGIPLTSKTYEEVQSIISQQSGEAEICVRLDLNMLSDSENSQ

NHERF4_2, Q86UT5 = target: NHERF4_2, Q86UT5
Sequence of NHERF4_2, Q86UT5 (Q86UT5 220-308): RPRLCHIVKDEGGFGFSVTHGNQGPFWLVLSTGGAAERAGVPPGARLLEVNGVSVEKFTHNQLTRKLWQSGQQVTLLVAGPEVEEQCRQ

SNTA1, Q13424 = target: T5, SNTA1, Q13424
T5 sequence (Q13424 82-180, limits assumed, looked up): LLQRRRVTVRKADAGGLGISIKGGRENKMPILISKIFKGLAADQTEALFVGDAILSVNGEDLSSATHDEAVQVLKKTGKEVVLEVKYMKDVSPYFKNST

MPP6, Q9NZW5 = target: T6, MPP6, Q9NZW5
T6 sequence (Q9NZW5 125-219, limits assumed, looked up): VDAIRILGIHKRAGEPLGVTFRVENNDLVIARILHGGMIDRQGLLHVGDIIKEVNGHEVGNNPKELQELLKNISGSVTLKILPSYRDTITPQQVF

APBA2_1, Q99767 = target: T7, APBA2_1, Q99767
T7 sequence (Q99767 563-664, limits assumed, looked up): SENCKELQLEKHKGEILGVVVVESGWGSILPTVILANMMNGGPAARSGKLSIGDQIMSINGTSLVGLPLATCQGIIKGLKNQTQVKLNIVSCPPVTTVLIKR

GRIP2_6, Q9C0E4 = target: GRIP2_6, Q9C0E4
Sequence of GRIP2_6, Q9C0E4 (Q9C0E4 648-740): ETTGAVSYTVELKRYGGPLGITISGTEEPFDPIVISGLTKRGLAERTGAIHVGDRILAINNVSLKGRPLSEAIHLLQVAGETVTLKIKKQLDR

PICK1, Q9NRD5 = target: PICK1, Q9NRD5
Sequence of PICK1, Q9NRD5 (Q9NRD5 17-115): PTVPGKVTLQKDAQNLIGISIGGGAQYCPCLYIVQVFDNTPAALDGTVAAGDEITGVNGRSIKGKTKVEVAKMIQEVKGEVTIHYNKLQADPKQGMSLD

TJP3_3, O95049 = target: T8, TJP3_3, O95049
T8 sequence (O95049 375-456, limits assumed, looked up): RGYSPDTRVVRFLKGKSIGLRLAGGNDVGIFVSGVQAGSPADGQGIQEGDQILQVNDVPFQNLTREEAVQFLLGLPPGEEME

TIAM2, Q8IVF5 = target: T9, TIAM2, Q8IVF5
T9 sequence (Q8IVF5 885-986, limits assumed, looked up): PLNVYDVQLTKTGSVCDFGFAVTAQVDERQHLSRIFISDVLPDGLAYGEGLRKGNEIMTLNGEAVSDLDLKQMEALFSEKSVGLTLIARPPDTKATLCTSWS

NHERF3_1, Q5T2W1 = target: T10, NHERF3_1, Q5T2W1
T10 sequence (Q5T2W1 4-100, limits assumed, looked up): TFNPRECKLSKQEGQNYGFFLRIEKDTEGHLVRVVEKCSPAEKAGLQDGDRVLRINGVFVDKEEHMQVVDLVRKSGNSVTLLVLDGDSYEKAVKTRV

CASK, O14936 = target: CASK, O14936
Sequence of CASK, O14936 (O14936 487-570): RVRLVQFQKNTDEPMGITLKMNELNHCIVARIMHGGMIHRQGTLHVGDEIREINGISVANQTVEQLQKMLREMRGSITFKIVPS

Inadl_6, Q8NI35 = target: Inadl_6, Q8NI35
Sequence of Inadl_6, Q8NI35 (Q8NI35 1058-1167): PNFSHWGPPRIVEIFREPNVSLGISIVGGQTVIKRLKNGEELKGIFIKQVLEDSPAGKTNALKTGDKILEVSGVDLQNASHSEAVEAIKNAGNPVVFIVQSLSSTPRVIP

ARHGEF12, Q9NZN5-2 = target: ARHGEF12, Q9NZN5-2
Sequence of ARHGEF12, Q9NZN5-2 (Q9NZN5 other isoform, or with tags, fused parts or gaps): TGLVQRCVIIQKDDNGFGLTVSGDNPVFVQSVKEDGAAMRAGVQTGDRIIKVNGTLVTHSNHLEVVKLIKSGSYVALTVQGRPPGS

DLG5_1, Q8TDM6 = target: DLG5_1, Q8TDM6
Sequence of DLG5_1, Q8TDM6 (Q8TDM6 617-713): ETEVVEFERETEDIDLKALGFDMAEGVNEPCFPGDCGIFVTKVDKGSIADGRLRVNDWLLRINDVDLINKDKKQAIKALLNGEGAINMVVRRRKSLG

HTRA2, O43464 = target: HTRA2, O43464
Sequence of HTRA2, O43464 (O43464 355-458): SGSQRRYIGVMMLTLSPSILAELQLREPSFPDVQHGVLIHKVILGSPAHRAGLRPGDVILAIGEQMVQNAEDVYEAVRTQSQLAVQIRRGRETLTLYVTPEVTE

DVL3, Q92997 = target: T11, DVL3, Q92997
T11 sequence (Q92997 244-331, limits assumed, looked up): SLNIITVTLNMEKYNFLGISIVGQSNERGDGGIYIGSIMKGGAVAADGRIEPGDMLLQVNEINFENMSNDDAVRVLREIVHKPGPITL

MAGI2_6, Q86UL8 = target: MAGI2_6, Q86UL8
Sequence of MAGI2_6, Q86UL8 (Q86UL8 1141-1229): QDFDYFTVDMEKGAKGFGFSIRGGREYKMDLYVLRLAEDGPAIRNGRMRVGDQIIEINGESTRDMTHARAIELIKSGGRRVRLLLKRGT

GRIP1_2, Q9Y3R0 = target: T12, GRIP1_2, Q9Y3R0
T12 sequence (Q9Y3R0 145-248, limits assumed, looked up): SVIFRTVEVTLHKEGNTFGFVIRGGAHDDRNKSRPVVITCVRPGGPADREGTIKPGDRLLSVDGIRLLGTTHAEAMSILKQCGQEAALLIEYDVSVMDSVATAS

APBA3_1, O96018 = target: T13, APBA3_1, O96018
T13 sequence (O96018 389-490, limits assumed, looked up): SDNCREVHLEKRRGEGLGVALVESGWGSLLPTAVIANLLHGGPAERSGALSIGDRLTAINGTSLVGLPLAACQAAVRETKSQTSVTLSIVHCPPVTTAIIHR

B1: CTBP1, Q13363 (peptide)
chain: ADRDHASDQL
- pKd (ARHGEF11, O15085): below the threshold
- pKd (IL16_1, Q14005): below the threshold
- pKd (FRMPD1, Q5SYB0): below the threshold
- pKd (NOS1, P29475): below the threshold
- pKd (CARD11, Q9BXL7): below the threshold
- pKd (GRIP2_3, Q9C0E4): below the threshold
- pKd (PCLO, Q9Y6V0): below the threshold
- pKd (NHERF4_2, Q86UT5): below the threshold
- pKd (SNTA1, Q13424): below the threshold
- pKd (MPP6, Q9NZW5): below the threshold
- pKd (APBA2_1, Q99767): below the threshold
- pKd (GRIP2_6, Q9C0E4): below the threshold
- pKd (PICK1, Q9NRD5): 4.13
- pKd (TJP3_3, O95049): below the threshold
- pKd (TIAM2, Q8IVF5): below the threshold
- pKd (NHERF3_1, Q5T2W1): 4.5
- pKd (CASK, O14936): below the threshold
- pKd (Inadl_6, Q8NI35): below the threshold
- pKd (ARHGEF12, Q9NZN5-2): below the threshold
- pKd (DLG5_1, Q8TDM6): below the threshold
- pKd (HTRA2, O43464): below the threshold
- pKd (DVL3, Q92997): below the threshold
- pKd (MAGI2_6, Q86UL8): below the threshold
- pKd (GRIP1_2, Q9Y3R0): below the threshold
- pKd (APBA3_1, O96018): below the threshold
